This is an account of results in the RNAGym collection of RNA variant scans (doi:10.1073/pnas.2313332121).

The labels stand for the following.
B1: TPR t1 (parent)
chain: GACCAAUCUGCCCUCAGAGCUCGAGAACAUCUUCGGAUGCAGAGGAGGCAGGCUUCGGUGGCGCGAUAGCGCCAACGUCCUCAACCUCCAAUGCAUCCCACCACAUGAUGAUGCCUGAAGAGCCUUGGUUUUUUG

The series covers variants of B1. The series is described as follows: polymerase ribozyme fitness, log enrichment relative to wild type (log ratio); higher = more active; in vitro selection for triplet polymerase activity. A digest of the protocol:
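Mutant libraries of both subunits of a heterodimeric triplet polymerase ribozyme were PCR-built, transcribed, and selected once in triplicate, with frozen incubation at −7 °C and capture of gel-excised extended constructs on streptavidin beads before RT-PCR. Illumina sequencing of input and output libraries was filtered to genotypes with ≥10 input reads and ≥1 read per output. Fitness is the logarithm of genotype enrichment over wild-type enrichment, using inverse-variance-weighted replicate averages. The logarithm is base 2.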
Consider C8A G19A A50G U54A A103C G120C, for which the “polymerase ribozyme fitness (log ratio)” value was -5.02.
For C12A C15A A43G A50U G61U, the “polymerase ribozyme fitness (log ratio)” value was -6.06.
As for A6G C40G U59A A103U, the figure is -6.42; as for C31A C72G, -5.43.
As for A43U G71A C115U, the figure is -3.62; as for G61C C97A, -4.3.
As for C4A A5G, the figure is -1.02; as for U59A A83G, -0.546.
For C62U A74C C89A C104A U112C, the “polymerase ribozyme fitness (log ratio)” value was -2.59.
With C13U A18G G52C, the “polymerase ribozyme fitness (log ratio)” value was -3.22.
As for G42U A43C G47C C62A U130C, the figure is -4.8; as for U14C G17C C20A A24U A43C C85U A111G, -6.11.
Consider G93C G113A C124G, for which the “polymerase ribozyme fitness (log ratio)” value is -0.942.
With C49G G60A A75U G93U, the “polymerase ribozyme fitness (log ratio)” value was -3.65.
As for C98U U116A, the figure is -4.71.
As for C49A A118G, the figure is -0.216.
As for C13U C82U, the figure is -0.268; as for A118U G120U U133G, -0.107.
For the variant G47C G58A U112A G117U, the “polymerase ribozyme fitness (log ratio)” value is -3.44.
As for C11A G42C C72A, the figure is -1.79; as for C22A G110A, -4.72; as for G60U U92C U106C G107A U112C, -6.06.
As for A37U G127U, the figure is -1.42; as for C11U G23A G110C U130G, -6.32; as for G61A U106C G122A, -0.878.
As for G60A G77A C82G, the figure is -0.994; as for A18C G63C, -4; as for A2U U32C C79A, -4.3.
As to C11A G71U C104A U129G G135U, the “polymerase ribozyme fitness (log ratio)” value was -5.56.
As for G42U A43C G69C A74U U87G C89G, the figure is -5.66.
As for A2C C12G G69C G110U G128C, the figure is -5.29; as for C56G G107A, -5.95; as for U14C C49A C56U U92G C97U A111U, -6.85.
As for G48C C49A U78G U81G, the figure is -1.87; as for C49U C82A U87C U96A, -1.66; as for C56A U78C, -0.456.
For G42U U78C, the “polymerase ribozyme fitness (log ratio)” value was -1.45.
As for G44C U55A C70G U126G, the figure is -5.73; as for A118U G127C, -1.35.
As for U21A G39C G77A, the figure is -1.28; as for G36C C72G C102A, -4.94; as for G39A G58A, -1.7.
Consider U30C U78A U106C A121U, for which the “polymerase ribozyme fitness (log ratio)” value is -2.15.
As for A29U G48C C82G A118U, the figure is -2.03; as for C40U C53U G61C U131A, -0.765; as for U7C G69A, -2.74.
As for G17A G36U U112G, the figure is -4.13.
As to C49U G61U, the “polymerase ribozyme fitness (log ratio)” value is -0.402.
As for U59C U106G, the figure is -1.74; as for G113C G120A, -2.39; as for G39U G44C C72U, -1.9.
As for C76U, the figure is -0.164; as for A5U C64U C79U G110A A111G U130C, -0.201.
As for U109G C114G, the figure is -4.93; as for C62U A68G C99U U133G, -6.26; as for G60A C64A U112C, -6.76.
Take C53A G135A: the “polymerase ribozyme fitness (log ratio)” value amounted to 0.127.
As for A43C A118U, the figure is -1.82; as for C49A C72U G77U C115A, -1.36.
As for C15A G60C U116C, the “polymerase ribozyme fitness (log ratio)” value was -3.39.
As for C12U G47A G113U, the figure is -3.45; as for C72U U112C, 1.19; as for C4U C56G C70A, -3.
With G45U U116G, the “polymerase ribozyme fitness (log ratio)” value was -3.76.
As for C3U C12U C89G, the figure is -1.64; as for C8G C11G C56A C62G C85U, -4.61.
As for C13U C76G C85U C104G, the figure is -7.55.
As for A5C U9G C15G A43U A95U G110U, the figure is -4.99; as for C34U C102U C124A, -0.815; as for C101A G127C, -1.82.
Consider G17U G23U A74U C123G, for which the “polymerase ribozyme fitness (log ratio)” value is -5.53.
As for C4A C40U G42C G52U G60A A119U U129A, the figure is -5.41.
As for C49U C62A C115A G122A, the figure is -2.37.
Consider G61C G63C G117C U126A G135U, for which the “polymerase ribozyme fitness (log ratio)” value is -4.51.
As for A111U U112G G122A, the figure is -2.25.
As for C8G A90G G113U G117A G127A, the figure is -6.12; as for G48A U87A, -0.877.
As for A6C C15U G63C, the figure is -2.01; as for U9G C13U C89A G107A C114U, -1.8.
As for A37U G63C G69U C97U C99U G110U, the “polymerase ribozyme fitness (log ratio)” value is -5.81.
As for C11A G36U G48C, the figure is -3.57.
Consider G45A C62U C115U U116C U126A G128C, for which the “polymerase ribozyme fitness (log ratio)” value was -5.86.
As for C64U C115U, the figure is -0.234; as for C97U U133A, -0.824.
As for C73U A91C, the figure is -1.74; as for G61A U78C C86A A95C, -1.85; as for U33G G35U G69U U78G A91C C114G G128C U132A G135A, -5.79.
As for C13U A18G G36A G48U C72U A118U, the figure is -6.03; as for C11U A50C G60U G77A G122A, 0.303.
On to A2C G63C U130A, for which the “polymerase ribozyme fitness (log ratio)” value is -2.69.
As for C12U A83C G93A, the figure is -0.192.
As for C3A C12U U54A G69U G77C, the figure is -3.81.
As for C20A C49G, the figure is -2.27; as for G42A C64G C114G G117C, -7.17; as for G113U U129G, -5.28.
Consider C12U A26G C56U G69U G117A U125G, for which the “polymerase ribozyme fitness (log ratio)” value was -4.97.
In the case of C4G G63U, the “polymerase ribozyme fitness (log ratio)” value is -1.88.
As for G10A G47C G63A C97U C101A C102U, the figure is -8.22.
With G39A A118G A121U, the “polymerase ribozyme fitness (log ratio)” value stood at 1.46.
As for A18U C94U, the figure is -3.18; as for C49U G51U G71A C86U, -7.37; as for G36U G52C U78G A95G, -2.15.
Consider C11A C72A C101A U126C, for which the “polymerase ribozyme fitness (log ratio)” value was -3.38.
As for A6C G117U U126A U131C, the figure is -6.38; as for C13A C88U, -2.04.
As for U21A U92C U116C A119G, the figure is 0.265; as for U9G C12A U54A G93A, 0.0472.
As for C11A G17A C124A G128A, the figure is -5.02; as for C34U C49G C53G A75G C88A C104A U112A, -5.7.
Turning to G35C G45U G61A A121G, the “polymerase ribozyme fitness (log ratio)” value is -3.1.
As for G47U A50U U54A, the figure is -2.42.
As for C11U G45C, the figure is -1.59.
As for G25A, the figure is -4.68.
On to A43C G93U, for which the “polymerase ribozyme fitness (log ratio)” value is -2.59.
For G10A C70G G120U, the “polymerase ribozyme fitness (log ratio)” value was -1.35.
For A46U C64U C101U U132C, the “polymerase ribozyme fitness (log ratio)” value was -1.55.
As for G47U C56G, the figure is -3.09; as for U78A A95G C102A, -2.41.
As for C72A C85U A90C, the figure is -1.5; as for C70A C89G, -3.96; as for C53G C99U, -3.54.
As for C15U G60A, the figure is -0.966; as for A6U C8A, 0.618.
For the variant U38G C62A U106A G113U, the “polymerase ribozyme fitness (log ratio)” value is -6.66.
As for U59A C70U U87A, the figure is -1.83; as for G19C G63C A111G C115G, -5.11.
As for G42U G57U C82U, the figure is -1.58; as for G71U U132C, -0.492.
Turning to A5U G52C C73A C101U U106A U109C G135U, the “polymerase ribozyme fitness (log ratio)” value was -5.42.
As for C4U G42A G45U G47A, the figure is -4.19; as for C11A C15A G51U G71A C99A G113C, -8.01; as for G42C U133G, -1.65.
As for C22A G45U C62U C73U, the figure is -5.77; as for U9C C49A A91C C104U, -1.34; as for G39U A103C C114U A119U G120A U130A, -4.34.
As for A18C A95C G128U, the figure is -5.8; as for C79A U81C G120U G135C, -2.91; as for G47A U87G, -0.336.
C11G G63A: the “polymerase ribozyme fitness (log ratio)” value is -0.354.
As for U7C G135C, the figure is -0.63.
As for G48C C104A C124A, the figure is -0.812; as for A2U G63A C86A, -4.44; as for C40A G61C A66U G128U U129A U133G, -6.
Consider U38A A50U C62U C123G U133A, for which the “polymerase ribozyme fitness (log ratio)” value is -1.2.
In the case of C12A G52A C73U A91G, the “polymerase ribozyme fitness (log ratio)” value was -2.04.
As for C22G C76G, the figure is -3.73; as for G60A C82U U109G, -5.13; as for A2G A5C G60A A74U C86U G135U, -1.91.
As for C40U A105C, the figure is -3.68; as for U7A G17U G52C C64U C123G, -1.52; as for A2U C11U U21A, -1.96.
As for C64G A121C, the figure is -5.13.
Take A5C C56U G69U G120A G135C: the “polymerase ribozyme fitness (log ratio)” value was -1.06.
As for G47C A90U, the figure is -4.3.
As for U38A C40A G93U, the figure is -0.915.
As for C49G C99U G127U, the figure is -4.66.
With C62G C79U U81A C85A, the “polymerase ribozyme fitness (log ratio)” value is -6.14.
As for A5U G36U, the figure is -1.3; as for G48U C94U, -1.2; as for U54G A95G U130A, -1.11.
As for A6C C12A C53U U78C, the figure is -1.07.
For U38G C101A, the “polymerase ribozyme fitness (log ratio)” value was -1.88.
As for C40G A43G U54A, the figure is -4.85; as for C104U G117U U132A, -1.97.
As for C8G C49G C89G, the figure is -1.42.
As for G39U C79U C88A G110A G117U, the figure is -6.66; as for G19A G71C C115U G128U, -5.92.
